# T1: NF90 (UniProt Q12906-2 1-702)
# T1 sequence: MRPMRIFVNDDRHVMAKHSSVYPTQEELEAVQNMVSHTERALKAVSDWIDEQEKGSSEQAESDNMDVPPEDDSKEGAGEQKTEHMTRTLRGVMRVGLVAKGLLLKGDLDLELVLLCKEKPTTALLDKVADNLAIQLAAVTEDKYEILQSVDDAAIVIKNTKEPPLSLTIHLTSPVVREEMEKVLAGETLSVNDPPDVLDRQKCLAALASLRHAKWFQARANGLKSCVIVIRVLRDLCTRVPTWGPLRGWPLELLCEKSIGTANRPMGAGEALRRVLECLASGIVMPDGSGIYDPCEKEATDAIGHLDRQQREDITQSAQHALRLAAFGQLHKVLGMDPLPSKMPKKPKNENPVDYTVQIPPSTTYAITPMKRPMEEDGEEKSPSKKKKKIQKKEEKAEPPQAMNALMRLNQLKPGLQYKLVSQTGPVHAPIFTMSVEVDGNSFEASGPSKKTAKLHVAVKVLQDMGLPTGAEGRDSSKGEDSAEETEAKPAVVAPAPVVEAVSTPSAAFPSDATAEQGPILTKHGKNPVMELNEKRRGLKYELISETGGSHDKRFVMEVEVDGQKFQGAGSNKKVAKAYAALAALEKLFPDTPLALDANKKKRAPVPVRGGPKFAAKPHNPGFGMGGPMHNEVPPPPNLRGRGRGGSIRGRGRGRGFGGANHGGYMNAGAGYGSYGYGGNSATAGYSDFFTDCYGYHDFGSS
# Tests used:
# NF90 [1] = molecular target: T1, NF90; experiment: EMSA; RNA EMSA as in ref 15; buffer, salt, pH and temperature not given; at least three replicates; details: protein: recombinant; label: radiolabel; hairpin
# NF90 [2] = molecular target: T1, NF90; experiment: EMSA; enhanced vs WT; band intensities only in figure; RNA EMSA as in ref 15; buffer, salt, pH and temperature not given; at least three replicates; details: protein: recombinant; label: radiolabel; hairpin
Binder,binding result (NF90 [1]),binding result (NF90 [2])
pri-miR-186 WT (structured_RNA) RNA: ACAGAACACCCAUCAUAUUCUUCCCAAACAUUUUUUCAUUGCUUGUAACUUUCCAAAGAAUUCUCCUUUUGGGCUUUCUGGUUUUAUUUUAAGCCCAAAGGUGAAUUUUUUGGGAAGUUUGAGCUAAAUUCCUUCAACCAAAAUAUACAAGUGAAGAAAAAAAAUUUGUAUUUAAACAUUUGCACAUUUACUUCUACCUGAAGCAUGUGAAUGUCAAC,binds,–
pri-miR-200a mutant #1 (structured_RNA) RNA: CUGGCUGCUCACCGCUCCGGUUCUUCCCUGGGCUUCCACAGCAGCCCCUGCCUGCCUGGCGGGACCCCACGUCCCUCCCGGGCCCCUGUGAGCAUCUUACCGGACAGUGCUGGAUUUCCCAGCCUGUCUGGUAACGAUGUUCAAAGGUGACCCGCCGCUCGCCGGGGACACCACCGAGGCACAUC,–,binds
pri-miR-3173 WT (structured_RNA) RNA: CAUUGGAGGUCUAGGGCUUAUUUUCCAGAUAGAAUUGAGUCUUUGUUGGUCUUGGGCCAGCUUCCCUGCCCUGCCUGUUUUCUCCUUUGUGAUUUUAUGAGAACAAAGGAGGAAAUAGGCAGGCCAGGGAAACGAUCUCUCUCCCUCUCUUGUGCCGAGGAAGAACU,binds,–
